Article doi:10.1101/2021.09.20.461157 (bioRxiv, 2021)

Molecular target: the molecule itself
Assay: cryo-EM structure

B1: Mouse EHD4 (residues 22-541, EHD4^ΔN) (domain or fragment, UniProt Q9EQP2 22-541, looked up)
chain: QTVTGGLRSLYQRKVLPLEEAYRFHEFHSPALEDADFENKPMILLVGQYSTGKTTFIRYLLEQDFPGMRIGPEPTTDSFIAVMYGETEGSTPGNALVVDPKKPFRKLSRFGNAFLNRFMCSQLPNQVLKSISIIDSPGILSGEKQRISRGYDFCQVLQWFAERVDRIILLFDAHKLDISDEFSEAIKAFRGQDDKIRVVLNKADQVDTQQLMRVYGALMWSLGKVINTPEVLRVYIGSFWAQPLQNTDNRRLFEAEAQDLFRDIQSLPQKAAVRKLNDLIKRARLAKVHAYIISYLKKEMPNMFGKENKKRELIYRLPEIYVQLQREYQISAGDFPEVKAMQEQLENYDFTKFHSLKPKLIEAVDNMLTNKISSLMGLISQEEMNMPTQMVQGGAFDGTTEGPFNQGYGEGAKEGADEEEWVVAKDKPVYDELFYTLSPINGKISGVNAKKEMVTSKLPNSVLGKIWKLADCDCDGMLDEEEFALAKHLIKIKLDGYELPNSLPPHLVPPSHRKSLPKAD
B1: binds.
